# Reference: patent US20100015126A1, “Methods of Binding of Cross-Beta Structures By Chaperones” (priority 2006, published 2010)
# Key:
# [1] = target: 25 kDa protein/immunoglobulin lambda chain/rheumatoid factor G9 light chain (lambda V3)/IGLC1 protein (human) (UniProt P0CG04); assay: BiP-Sepharose pull-down, RA synovial fluid sample 3B, 1 M NaCl eluate, MS; may be indirect
# [2] = target: Apolipoprotein A-I precursor (human) (UniProt P02647); assay: as above
# [3] = target: Clusterin precursor (human) (UniProt P10909); assay: as above
# [4] = target: Galectin-3-binding protein precursor (human) (UniProt Q08380); assay: as above
# [5] = target: Heat shock 70 kDa protein 1L (human) (UniProt P34931); assay: as above
# Histone H3.2 (human) = Histone H3.2 (human) (UniProt Q71DI3); assay: as above
# [6] = target: IGHM protein, immunoglobulin heavy chain mu (heavy chain disease protein) (human) (UniProt P01871); assay: as above
# [7] = target: IGKV1-5 protein, immunoglobulin kappa variable 1-5 (human) (UniProt P01602); assay: as above
# [8] = target: Isoform A of Proteoglycan-4 precursor (human) (UniProt Q92954); assay: as above
# [9] = target: Isoform H17 of Myeloperoxidase precursor (human) (UniProt P05164); assay: as above
# [10] = target: Neutrophil defensin 1 precursor (human) (UniProt P59665); assay: as above
# [11] = target: Heat shock 70 kDa protein 1L (human) (UniProt P34931); assay: BiP-Sepharose pull-down, RA synovial fluid sample 6B, 1 M NaCl eluate, MS; may be indirect
# [12] = target: Vitronectin precursor (Serum-spreading factor/S-protein) (human) (UniProt P04004); assay: as above
# [13] = target: IGLC1 protein (immunoglobulin lambda C1)/immunoglobulin lambda chain/immunoglobulin C1 segment protein (fragment) (human) (UniProt P0CG04); assay: BiP-Sepharose pull-down, RA patient IV synovial fluid (B6), MS of urea eluate; may be indirect
# [14] = target: Ig heavy chain V-III region CAM (human) (UniProt P01768); assay: as above
# [15] = target: Immunoglobulin heavy constant mu (IPI00479708) (human) (UniProt P01871); assay: as above
# [16] = target: 25 kDa protein/immunoglobulin lambda chain/rheumatoid factor G9 light chain (lambda V3)/IGLC1 protein (human) (UniProt P0CG04); assay: BiP-Sepharose pull-down, AL amyloidosis patient I plasma (B2), MS of urea eluate; may be indirect
# [17] = target: Apolipoprotein E precursor/Apolipoprotein E/Apolipoprotein E3 (Fragment) (human) (UniProt P02649); assay: as above
# [18] = target: Fc fragment of IgG binding protein (IgGFc-binding protein precursor) (human) (UniProt Q9Y6R7); assay: as above
# [19] = target: IGLC2 protein (immunoglobulin lambda C2)/Immunoglobulin lambda (human) (UniProt P0DOY2); assay: as above
# [20] = target: Immunoglobulin heavy constant gamma 3 (G3m marker)/Ig gamma-3 chain C region (human) (UniProt P01860); assay: as above
# [21] = target: Immunoglobulin lambda variable 3-25/V2-17 protein (Fragment) (human) (UniProt P01717); assay: as above
# [22] = target: Isoform Long of Antigen KI-67/Antigen KI-67 (human) (UniProt P46013); assay: as above
# [23] = target: Apolipoprotein E precursor/Apolipoprotein E/Apolipoprotein E3 (Fragment) (human) (UniProt P02649); assay: BiP-Sepharose pull-down, AL amyloidosis patient II plasma (B3), MS of urea eluate; may be indirect
# [24] = target: Complement factor H-related protein 3 precursor (human) (UniProt Q02985); assay: as above
# [25] = target: Dynein heavy chain domain 3/KIAA1503 protein (Fragment) (human) (UniProt Q9P225); assay: as above
# [26] = target: Hypothetical protein/Ig kappa chain V-II region RPMI 6410 precursor (human) (UniProt P06310); assay: as above
# [27] = target: IGLC1 protein (immunoglobulin lambda C1)/immunoglobulin lambda chain/immunoglobulin C1 segment protein (fragment) (human) (UniProt P0CG04); assay: as above
# [28] = target: V1-3 protein (Fragment)/immunoglobulin lambda variable 2-11 (human) (UniProt P01706); assay: as above
# V1-3 protein (Fragment)/immunoglobulin lambda variable 2-11 (human), sequence (P01706 20-119 limits assumed): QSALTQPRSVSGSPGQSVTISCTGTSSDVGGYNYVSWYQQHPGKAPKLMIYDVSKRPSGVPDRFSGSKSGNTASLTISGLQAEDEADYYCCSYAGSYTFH
# recombinant human BiP with C-terminal linker, FLAG-tag and His-tag (BiP-FLAG-His), sequence (P11021 other isoform, or with tags, fused parts or gaps): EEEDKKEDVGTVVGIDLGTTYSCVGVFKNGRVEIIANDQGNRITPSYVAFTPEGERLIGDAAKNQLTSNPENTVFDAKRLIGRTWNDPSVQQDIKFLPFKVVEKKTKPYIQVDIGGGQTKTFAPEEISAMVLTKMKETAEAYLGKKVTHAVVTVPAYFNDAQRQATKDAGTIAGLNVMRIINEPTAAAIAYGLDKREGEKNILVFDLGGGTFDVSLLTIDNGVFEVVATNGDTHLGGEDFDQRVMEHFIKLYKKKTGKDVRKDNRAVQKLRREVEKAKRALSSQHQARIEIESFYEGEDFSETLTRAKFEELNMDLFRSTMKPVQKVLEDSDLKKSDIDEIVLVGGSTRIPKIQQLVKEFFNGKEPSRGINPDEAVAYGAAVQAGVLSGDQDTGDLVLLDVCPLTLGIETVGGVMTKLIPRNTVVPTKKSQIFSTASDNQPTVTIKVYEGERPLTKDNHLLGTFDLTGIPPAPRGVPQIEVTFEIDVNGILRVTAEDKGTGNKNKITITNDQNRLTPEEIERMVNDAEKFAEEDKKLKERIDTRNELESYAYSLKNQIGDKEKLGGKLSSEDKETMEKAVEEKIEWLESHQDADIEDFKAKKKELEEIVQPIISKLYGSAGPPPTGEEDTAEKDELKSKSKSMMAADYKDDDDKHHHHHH
# IGLC1 protein (immunoglobulin lambda C1)/immunoglobulin lambda chain/immunoglobulin C1 segment protein (fragment) (human), sequence (P0CG04 whole entry, the tested form may be a part): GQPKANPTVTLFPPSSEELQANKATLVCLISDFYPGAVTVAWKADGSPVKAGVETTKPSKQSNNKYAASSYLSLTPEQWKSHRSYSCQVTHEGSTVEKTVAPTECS
# Apolipoprotein E precursor/Apolipoprotein E/Apolipoprotein E3 (Fragment) (human), sequence (P02649 19-317 limits assumed): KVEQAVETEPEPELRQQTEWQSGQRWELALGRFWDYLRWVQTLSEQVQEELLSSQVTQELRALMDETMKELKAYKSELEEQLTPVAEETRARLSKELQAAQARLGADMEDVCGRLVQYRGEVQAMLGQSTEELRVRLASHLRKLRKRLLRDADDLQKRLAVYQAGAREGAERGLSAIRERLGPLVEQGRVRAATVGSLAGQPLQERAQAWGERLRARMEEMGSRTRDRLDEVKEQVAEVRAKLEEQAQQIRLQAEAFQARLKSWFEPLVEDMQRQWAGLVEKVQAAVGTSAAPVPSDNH
# Heat shock 70 kDa protein 1L (human), sequence (P34931 whole entry): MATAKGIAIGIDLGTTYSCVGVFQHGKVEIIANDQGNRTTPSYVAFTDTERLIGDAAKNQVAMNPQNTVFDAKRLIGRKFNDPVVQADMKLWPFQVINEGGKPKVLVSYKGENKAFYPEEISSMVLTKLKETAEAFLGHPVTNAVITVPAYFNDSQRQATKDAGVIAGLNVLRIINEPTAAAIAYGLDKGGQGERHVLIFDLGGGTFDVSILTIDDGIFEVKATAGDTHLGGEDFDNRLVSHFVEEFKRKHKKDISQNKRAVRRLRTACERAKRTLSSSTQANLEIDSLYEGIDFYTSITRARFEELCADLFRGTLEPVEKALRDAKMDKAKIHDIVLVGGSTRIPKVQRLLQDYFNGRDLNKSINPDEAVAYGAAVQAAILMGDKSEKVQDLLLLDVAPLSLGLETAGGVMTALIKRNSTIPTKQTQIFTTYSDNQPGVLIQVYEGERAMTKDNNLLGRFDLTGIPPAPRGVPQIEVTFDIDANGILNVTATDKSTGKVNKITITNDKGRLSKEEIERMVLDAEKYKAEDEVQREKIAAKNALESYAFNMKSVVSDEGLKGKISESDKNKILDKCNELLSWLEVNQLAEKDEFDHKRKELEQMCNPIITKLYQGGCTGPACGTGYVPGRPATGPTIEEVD
# Clusterin precursor (human), sequence (P10909 23-449 limits assumed, form in doubt): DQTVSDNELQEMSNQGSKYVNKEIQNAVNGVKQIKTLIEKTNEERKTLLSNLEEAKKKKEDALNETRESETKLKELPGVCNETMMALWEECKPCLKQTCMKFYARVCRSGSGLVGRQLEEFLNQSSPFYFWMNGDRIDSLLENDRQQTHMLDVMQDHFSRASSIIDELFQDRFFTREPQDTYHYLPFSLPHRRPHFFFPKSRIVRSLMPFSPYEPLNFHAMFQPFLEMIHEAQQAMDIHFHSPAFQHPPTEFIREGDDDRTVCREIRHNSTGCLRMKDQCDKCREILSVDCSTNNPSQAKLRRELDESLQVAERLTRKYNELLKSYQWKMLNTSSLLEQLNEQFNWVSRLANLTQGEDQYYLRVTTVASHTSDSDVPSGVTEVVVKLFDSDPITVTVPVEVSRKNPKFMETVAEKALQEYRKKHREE
# Ig heavy chain V-III region CAM (human), sequence (P01768 20-117 limits assumed): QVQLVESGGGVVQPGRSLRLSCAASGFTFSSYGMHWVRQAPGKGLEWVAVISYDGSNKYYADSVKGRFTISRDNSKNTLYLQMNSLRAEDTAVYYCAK
# IGKV1-5 protein, immunoglobulin kappa variable 1-5 (human), sequence (P01602 23-117 limits assumed): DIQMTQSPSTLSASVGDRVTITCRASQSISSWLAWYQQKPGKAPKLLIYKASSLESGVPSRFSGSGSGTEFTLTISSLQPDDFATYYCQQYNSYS
# Complement factor H-related protein 3 precursor (human), sequence (Q02985 19-330 limits assumed): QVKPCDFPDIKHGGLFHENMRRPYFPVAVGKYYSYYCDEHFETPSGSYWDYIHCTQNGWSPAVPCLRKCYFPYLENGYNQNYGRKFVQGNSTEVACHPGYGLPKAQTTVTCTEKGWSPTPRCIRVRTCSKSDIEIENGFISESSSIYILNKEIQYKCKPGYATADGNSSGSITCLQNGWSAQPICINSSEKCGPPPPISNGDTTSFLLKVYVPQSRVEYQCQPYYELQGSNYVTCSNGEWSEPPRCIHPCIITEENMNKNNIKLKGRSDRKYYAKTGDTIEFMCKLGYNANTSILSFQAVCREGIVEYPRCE
# IGHM protein, immunoglobulin heavy chain mu (heavy chain disease protein) (human), sequence (P01871 other isoform, or with tags, fused parts or gaps limits assumed): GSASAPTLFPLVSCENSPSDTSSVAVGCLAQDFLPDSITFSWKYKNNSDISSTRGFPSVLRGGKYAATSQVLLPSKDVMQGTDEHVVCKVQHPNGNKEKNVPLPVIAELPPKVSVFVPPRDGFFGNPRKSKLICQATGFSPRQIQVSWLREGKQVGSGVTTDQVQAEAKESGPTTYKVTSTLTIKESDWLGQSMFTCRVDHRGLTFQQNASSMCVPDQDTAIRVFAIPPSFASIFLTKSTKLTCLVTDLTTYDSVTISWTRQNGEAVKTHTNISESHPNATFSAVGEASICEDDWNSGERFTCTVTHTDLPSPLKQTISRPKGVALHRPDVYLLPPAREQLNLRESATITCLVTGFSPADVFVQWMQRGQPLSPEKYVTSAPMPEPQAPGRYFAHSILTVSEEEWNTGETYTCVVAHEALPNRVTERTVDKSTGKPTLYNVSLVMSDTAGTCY
# Immunoglobulin heavy constant mu (IPI00479708) (human), sequence (P01871 other isoform, or with tags, fused parts or gaps limits assumed): as above
# Galectin-3-binding protein precursor (human), sequence (Q08380 19-585 limits assumed): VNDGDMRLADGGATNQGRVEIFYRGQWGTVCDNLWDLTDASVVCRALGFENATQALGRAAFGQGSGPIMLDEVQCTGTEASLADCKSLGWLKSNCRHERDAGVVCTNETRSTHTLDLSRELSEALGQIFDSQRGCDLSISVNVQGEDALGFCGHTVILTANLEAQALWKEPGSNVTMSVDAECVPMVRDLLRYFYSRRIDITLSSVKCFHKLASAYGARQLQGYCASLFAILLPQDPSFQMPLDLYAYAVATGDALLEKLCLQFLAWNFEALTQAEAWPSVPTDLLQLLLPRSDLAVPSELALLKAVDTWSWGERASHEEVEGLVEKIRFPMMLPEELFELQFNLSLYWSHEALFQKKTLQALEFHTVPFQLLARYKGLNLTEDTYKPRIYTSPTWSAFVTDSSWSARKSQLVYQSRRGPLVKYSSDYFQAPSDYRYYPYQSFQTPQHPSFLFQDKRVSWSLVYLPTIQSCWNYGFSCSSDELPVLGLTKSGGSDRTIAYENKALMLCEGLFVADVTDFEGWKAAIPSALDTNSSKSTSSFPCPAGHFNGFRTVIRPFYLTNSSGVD
# Immunoglobulin lambda variable 3-25/V2-17 protein (Fragment) (human), sequence (P01717 20-112 limits assumed): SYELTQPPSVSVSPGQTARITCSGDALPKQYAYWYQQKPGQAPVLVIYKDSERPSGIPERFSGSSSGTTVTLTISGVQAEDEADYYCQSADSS
# Apolipoprotein A-I precursor (human), sequence (P02647 25-267 limits assumed): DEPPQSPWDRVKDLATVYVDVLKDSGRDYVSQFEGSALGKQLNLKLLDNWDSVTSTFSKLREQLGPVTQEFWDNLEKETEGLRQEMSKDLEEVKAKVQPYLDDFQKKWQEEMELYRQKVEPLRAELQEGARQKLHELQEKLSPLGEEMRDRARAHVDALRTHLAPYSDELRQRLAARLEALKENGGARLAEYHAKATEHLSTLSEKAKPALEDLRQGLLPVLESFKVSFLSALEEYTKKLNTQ
# Neutrophil defensin 1 precursor (human), sequence (P59665 65-94 limits assumed): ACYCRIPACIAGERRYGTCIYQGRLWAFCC
# Hypothetical protein/Ig kappa chain V-II region RPMI 6410 precursor (human), sequence (P06310 21-120): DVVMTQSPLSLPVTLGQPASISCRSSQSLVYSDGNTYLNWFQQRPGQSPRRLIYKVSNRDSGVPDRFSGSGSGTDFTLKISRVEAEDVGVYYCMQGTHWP
substance,measurement,setting,value
"recombinant human BiP with C-terminal linker, FLAG-tag and His-tag (BiP-FLAG-His) (from UniProt P11021 19-654)",# of unique peptides,[1],1 peptides
same,# of unique peptides,[2],8 peptides
same,# of unique peptides,[3],1 peptides
same,# of unique peptides,[4],1 peptides
same,# of unique peptides,[5],1 peptides
same,# of unique peptides,Histone H3.2 (human),1 peptides
same,# of unique peptides,[6],1 peptides
same,# of unique peptides,[7],5 peptides
same,# of unique peptides,[8],2 peptides
same,# of unique peptides,[9],1 peptides
same,# of unique peptides,[10],1 peptides
same,# of unique peptides,[11],1 peptides
same,# of unique peptides,[12],1 peptides
same,# of peptides,[13],1 peptides
same,# of peptides,[14],2 peptides
same,# of peptides,[15],1 peptides
same,# of peptides,[16],1 peptides
same,# of peptides,[17],6 peptides
same,# of peptides,[18],4 peptides
same,# of peptides,[19],1 peptides
same,# of peptides,[20],2 peptides
same,# of peptides,[21],8 peptides
same,# of peptides,[22],1 peptides
same,# of peptides,[23],1 peptides
same,# of peptides,[24],1 peptides
same,# of peptides,[25],2 peptides
same,# of peptides,[26],1 peptides
same,# of peptides,[27],1 peptides
same,# of peptides,[28],2 peptides
